In publication doi:10.1101/2020.10.21.349480 (2020):

How the values were obtained:
mouse collagen I [1] = target: T1, mouse collagen I (mouse, UniProt P11087 152-1207; Q01149 86-1125); assay: BLI; analysis by molarity
rat collagen III [2] = target: T2, rat collagen III (rat, UniProt P13941 155-1218); assay: BLI; analysis by molarity
T2 chain: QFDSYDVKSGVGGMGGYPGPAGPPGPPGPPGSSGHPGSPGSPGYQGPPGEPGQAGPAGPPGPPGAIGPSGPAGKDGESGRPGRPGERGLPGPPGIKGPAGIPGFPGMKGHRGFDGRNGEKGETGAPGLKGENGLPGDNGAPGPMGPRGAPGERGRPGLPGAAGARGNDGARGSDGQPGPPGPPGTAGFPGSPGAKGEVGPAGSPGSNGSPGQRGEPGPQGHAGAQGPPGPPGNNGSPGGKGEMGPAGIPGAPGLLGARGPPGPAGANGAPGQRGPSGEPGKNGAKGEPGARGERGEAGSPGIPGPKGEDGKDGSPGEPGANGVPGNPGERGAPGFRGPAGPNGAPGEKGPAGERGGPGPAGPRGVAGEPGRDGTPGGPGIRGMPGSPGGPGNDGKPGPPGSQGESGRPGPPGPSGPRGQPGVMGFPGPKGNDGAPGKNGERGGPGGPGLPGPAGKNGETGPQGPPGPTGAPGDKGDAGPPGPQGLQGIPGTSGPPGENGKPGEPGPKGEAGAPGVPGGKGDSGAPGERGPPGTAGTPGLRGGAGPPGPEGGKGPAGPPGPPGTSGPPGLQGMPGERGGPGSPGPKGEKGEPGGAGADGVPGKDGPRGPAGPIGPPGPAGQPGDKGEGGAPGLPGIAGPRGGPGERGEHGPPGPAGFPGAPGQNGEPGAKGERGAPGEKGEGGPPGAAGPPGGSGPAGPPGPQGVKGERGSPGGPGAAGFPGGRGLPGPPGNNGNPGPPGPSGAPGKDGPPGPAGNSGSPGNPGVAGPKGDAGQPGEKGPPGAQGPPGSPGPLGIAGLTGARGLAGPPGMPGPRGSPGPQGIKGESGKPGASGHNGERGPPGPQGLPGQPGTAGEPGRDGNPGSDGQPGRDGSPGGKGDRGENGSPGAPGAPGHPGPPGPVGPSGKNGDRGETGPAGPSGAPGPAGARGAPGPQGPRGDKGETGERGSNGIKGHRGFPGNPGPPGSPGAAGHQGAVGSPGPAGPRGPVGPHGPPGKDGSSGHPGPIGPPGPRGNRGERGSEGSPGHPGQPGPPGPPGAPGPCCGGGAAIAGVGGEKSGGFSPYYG

rat collagen I [3] = target: T3, rat collagen I (rat, UniProt P02454 152-1207; P02466 86-1125); assay: BLI; analysis by molarity
human collagen III [4] = target: T4, human collagen III (human, UniProt P02461 154-1221); assay: BLI; analysis by molarity
T4 chain: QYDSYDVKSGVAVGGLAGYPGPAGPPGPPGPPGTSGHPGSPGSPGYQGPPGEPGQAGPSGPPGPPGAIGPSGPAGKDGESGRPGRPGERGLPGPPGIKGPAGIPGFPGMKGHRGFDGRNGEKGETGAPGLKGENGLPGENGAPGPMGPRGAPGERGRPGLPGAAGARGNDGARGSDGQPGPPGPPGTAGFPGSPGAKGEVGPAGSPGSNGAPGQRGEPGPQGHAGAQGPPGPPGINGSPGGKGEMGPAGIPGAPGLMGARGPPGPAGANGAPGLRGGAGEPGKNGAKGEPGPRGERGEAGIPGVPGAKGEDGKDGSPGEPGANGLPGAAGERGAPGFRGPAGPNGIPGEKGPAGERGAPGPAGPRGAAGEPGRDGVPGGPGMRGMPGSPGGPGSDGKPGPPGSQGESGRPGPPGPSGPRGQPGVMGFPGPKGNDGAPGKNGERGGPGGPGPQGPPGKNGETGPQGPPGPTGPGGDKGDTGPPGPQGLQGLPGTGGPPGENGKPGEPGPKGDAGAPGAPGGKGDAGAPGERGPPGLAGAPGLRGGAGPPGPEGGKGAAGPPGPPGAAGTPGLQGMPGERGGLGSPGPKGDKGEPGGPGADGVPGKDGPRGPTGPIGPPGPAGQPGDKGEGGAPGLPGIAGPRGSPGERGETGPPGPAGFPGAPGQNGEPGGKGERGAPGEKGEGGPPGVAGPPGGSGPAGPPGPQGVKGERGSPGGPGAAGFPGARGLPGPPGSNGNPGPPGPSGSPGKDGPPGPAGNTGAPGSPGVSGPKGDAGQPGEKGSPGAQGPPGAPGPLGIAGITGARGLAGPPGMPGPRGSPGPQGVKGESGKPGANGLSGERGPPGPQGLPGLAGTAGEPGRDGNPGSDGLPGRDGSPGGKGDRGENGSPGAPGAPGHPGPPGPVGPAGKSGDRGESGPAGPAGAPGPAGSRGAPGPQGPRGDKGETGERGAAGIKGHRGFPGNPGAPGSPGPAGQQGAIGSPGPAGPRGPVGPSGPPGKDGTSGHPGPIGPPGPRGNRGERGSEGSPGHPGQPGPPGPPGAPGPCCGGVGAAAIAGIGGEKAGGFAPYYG

human collagen I [5] = target: T5, human collagen I (human, UniProt P02452 162-1218; P08123 80-1119); assay: BLI; analysis by molarity
T5 sequence (P02452 162-1218, chain 1 of 2): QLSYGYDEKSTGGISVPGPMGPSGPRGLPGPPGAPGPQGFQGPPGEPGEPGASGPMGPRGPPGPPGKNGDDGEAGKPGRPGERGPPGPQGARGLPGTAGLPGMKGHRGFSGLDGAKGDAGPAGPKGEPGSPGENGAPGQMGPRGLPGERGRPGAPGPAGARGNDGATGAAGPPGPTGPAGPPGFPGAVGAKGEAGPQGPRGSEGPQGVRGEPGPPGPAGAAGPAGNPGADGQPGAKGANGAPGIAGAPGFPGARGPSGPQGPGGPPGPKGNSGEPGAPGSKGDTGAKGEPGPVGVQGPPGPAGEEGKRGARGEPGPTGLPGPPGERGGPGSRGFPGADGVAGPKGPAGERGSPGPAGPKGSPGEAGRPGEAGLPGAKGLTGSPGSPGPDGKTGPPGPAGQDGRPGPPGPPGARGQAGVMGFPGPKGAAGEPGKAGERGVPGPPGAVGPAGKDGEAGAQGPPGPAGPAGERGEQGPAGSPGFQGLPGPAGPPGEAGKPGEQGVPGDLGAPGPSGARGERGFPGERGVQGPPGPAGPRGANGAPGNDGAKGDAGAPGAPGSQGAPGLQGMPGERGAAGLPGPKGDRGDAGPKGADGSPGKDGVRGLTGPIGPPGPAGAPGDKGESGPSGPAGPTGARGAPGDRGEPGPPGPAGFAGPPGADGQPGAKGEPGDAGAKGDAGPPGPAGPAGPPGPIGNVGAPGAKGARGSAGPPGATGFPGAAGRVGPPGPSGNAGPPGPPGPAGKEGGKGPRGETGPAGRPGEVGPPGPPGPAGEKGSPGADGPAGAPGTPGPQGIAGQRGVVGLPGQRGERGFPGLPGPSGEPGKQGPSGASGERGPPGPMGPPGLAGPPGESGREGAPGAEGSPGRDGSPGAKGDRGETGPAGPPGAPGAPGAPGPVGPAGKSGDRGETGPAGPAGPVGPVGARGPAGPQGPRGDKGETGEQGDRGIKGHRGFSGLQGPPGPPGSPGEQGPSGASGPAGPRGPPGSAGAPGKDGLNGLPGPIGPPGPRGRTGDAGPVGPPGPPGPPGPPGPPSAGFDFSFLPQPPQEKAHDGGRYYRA
T5 sequence (P08123 80-1119, chain 2 of 2): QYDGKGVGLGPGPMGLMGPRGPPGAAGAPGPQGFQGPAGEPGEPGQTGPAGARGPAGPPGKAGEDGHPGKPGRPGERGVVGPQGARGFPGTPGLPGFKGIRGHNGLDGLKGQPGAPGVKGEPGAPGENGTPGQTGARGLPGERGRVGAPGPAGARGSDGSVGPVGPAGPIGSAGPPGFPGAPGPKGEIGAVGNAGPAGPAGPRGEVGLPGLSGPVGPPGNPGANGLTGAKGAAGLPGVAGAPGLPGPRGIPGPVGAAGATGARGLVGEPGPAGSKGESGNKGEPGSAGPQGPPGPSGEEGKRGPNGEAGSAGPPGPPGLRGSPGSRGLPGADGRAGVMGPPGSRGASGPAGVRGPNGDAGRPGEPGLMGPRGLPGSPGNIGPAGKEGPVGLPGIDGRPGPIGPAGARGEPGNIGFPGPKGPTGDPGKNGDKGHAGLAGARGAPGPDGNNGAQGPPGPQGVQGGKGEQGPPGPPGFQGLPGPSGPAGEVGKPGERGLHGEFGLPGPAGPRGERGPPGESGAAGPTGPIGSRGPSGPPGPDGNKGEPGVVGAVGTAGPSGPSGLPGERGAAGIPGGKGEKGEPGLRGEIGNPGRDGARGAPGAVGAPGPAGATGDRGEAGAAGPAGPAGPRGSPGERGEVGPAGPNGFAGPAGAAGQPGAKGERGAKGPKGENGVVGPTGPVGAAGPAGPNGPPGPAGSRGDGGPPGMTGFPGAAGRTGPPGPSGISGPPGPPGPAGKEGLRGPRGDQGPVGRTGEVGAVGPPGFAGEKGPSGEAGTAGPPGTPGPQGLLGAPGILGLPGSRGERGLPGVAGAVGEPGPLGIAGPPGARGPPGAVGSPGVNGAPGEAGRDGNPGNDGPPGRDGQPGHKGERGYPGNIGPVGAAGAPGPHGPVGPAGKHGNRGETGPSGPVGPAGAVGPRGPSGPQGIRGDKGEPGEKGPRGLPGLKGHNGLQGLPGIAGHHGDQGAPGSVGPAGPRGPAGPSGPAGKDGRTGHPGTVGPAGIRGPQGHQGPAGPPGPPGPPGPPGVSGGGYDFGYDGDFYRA

mouse collagen I [6] = target: T1, mouse collagen I; assay: BLI; analysis by binding sites/mol
rat collagen III [7] = target: T2, rat collagen III; assay: BLI; analysis by binding sites/mol
rat collagen I [8] = target: T3, rat collagen I; assay: BLI; analysis by binding sites/mol
human collagen III [9] = target: T4, human collagen III; assay: BLI; analysis by binding sites/mol
human collagen I [10] = target: T5, human collagen I; assay: BLI; analysis by binding sites/mol
mouse collagen I [11] = target: T1, mouse collagen I; assay: BLI; apparent KD, analysis by binding sites/mol
rat collagen III [12] = target: T2, rat collagen III; assay: BLI; apparent KD, analysis by binding sites/mol
rat collagen I [13] = target: T3, rat collagen I; assay: BLI; apparent KD, analysis by binding sites/mol
human collagen III [14] = target: T4, human collagen III; assay: BLI; apparent KD, analysis by binding sites/mol
human collagen I [15] = target: T5, human collagen I; assay: BLI; apparent KD, analysis by binding sites/mol
mouse collagen I [16] = target: T1, mouse collagen I; assay: BLI; apparent KD (avidity), analysis by molarity
rat collagen III [17] = target: T2, rat collagen III; assay: BLI; apparent KD (avidity), analysis by molarity
rat collagen I [18] = target: T3, rat collagen I; assay: BLI; apparent KD (avidity), analysis by molarity
human collagen III [19] = target: T4, human collagen III; assay: BLI; apparent KD (avidity), analysis by molarity
human collagen I [20] = target: T5, human collagen I; assay: BLI; apparent KD (avidity), analysis by molarity

T1 sequence (P11087 152-1207, chain 1 of 2): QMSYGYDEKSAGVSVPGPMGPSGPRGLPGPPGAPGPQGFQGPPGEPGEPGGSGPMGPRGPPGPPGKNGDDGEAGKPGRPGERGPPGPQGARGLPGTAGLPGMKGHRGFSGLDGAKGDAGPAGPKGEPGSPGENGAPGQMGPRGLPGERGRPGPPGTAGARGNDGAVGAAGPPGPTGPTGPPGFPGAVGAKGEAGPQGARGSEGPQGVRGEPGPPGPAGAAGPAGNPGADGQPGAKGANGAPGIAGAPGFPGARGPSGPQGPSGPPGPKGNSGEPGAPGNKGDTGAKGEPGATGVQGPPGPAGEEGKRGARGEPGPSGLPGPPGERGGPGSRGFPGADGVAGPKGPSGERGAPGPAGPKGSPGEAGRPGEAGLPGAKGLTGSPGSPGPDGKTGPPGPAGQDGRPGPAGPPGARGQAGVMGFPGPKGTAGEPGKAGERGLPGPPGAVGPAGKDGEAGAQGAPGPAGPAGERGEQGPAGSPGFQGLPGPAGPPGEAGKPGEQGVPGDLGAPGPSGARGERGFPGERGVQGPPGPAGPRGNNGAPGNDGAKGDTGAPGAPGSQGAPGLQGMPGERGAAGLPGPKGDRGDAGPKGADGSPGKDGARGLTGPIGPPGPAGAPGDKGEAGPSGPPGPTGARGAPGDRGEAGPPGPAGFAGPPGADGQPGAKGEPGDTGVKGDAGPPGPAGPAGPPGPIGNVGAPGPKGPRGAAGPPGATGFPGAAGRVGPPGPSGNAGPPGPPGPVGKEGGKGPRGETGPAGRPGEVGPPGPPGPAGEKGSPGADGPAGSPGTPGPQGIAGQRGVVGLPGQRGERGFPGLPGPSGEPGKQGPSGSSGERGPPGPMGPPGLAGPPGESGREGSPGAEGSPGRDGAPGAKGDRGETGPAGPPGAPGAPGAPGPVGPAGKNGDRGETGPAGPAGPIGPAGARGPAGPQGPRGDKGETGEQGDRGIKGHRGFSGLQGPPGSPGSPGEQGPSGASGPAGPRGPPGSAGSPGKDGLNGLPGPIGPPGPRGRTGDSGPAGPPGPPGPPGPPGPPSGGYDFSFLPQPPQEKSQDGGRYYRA
T1 sequence (Q01149 86-1125, chain 2 of 2): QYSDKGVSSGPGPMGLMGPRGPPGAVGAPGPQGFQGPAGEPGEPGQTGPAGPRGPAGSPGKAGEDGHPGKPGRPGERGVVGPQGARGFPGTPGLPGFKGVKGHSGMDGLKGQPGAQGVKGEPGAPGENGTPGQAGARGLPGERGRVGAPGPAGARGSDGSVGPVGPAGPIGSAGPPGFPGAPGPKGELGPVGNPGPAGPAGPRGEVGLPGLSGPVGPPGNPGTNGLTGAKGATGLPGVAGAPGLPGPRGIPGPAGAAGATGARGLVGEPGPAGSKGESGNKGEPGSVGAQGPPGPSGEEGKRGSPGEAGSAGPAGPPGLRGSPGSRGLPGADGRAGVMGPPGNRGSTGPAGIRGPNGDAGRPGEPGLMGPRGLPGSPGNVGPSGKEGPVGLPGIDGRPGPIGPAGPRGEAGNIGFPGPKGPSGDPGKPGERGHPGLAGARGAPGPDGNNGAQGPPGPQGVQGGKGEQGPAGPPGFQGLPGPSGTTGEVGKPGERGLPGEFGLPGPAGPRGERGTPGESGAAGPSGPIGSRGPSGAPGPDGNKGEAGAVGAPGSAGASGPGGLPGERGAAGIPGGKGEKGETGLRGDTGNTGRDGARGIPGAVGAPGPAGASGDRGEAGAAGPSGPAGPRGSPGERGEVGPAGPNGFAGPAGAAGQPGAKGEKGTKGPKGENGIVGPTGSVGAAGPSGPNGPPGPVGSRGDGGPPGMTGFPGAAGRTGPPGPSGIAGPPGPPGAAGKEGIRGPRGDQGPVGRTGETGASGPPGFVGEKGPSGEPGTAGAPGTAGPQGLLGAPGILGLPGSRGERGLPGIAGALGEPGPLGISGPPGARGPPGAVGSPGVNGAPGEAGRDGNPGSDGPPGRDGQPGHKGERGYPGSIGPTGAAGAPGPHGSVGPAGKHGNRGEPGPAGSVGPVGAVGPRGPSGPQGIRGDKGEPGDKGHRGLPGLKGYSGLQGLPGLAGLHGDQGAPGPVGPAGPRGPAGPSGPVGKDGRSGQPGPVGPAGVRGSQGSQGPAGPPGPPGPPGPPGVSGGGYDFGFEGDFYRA

B1: NC410, LAIR-2 human IgG1 Fc fusion protein (Fc fusion)
chain: QEGALPRPSISAEPGTVISPGSHVTFMCRGPVGVQTFRLEREDRAKYKDSYNVFRLGPSESEARFHIDSVSEGNAGLYRCLYYKPPGWSEHSDFLELLVKESSGGPDSPDTEPGSSAGTVPGTEASGFDAP
For B1, the koff (mouse collagen I [1]) was 0.000194 s⁻¹, the koff (rat collagen III [2]) was 0.000433 s⁻¹ and the koff (rat collagen I [3]) was 0.000241 s⁻¹. For the same binder, the koff (human collagen III [4]) was 0.000241 s⁻¹, the koff (human collagen I [5]) was 0.000186 s⁻¹ and the koff (mouse collagen I [6]) was 0.000194 s⁻¹. For the same binder, the koff (rat collagen III [7]) was 0.000432 s⁻¹, the koff (rat collagen I [8]) was 0.000241 s⁻¹ and the koff (human collagen III [9]) was 0.000241 s⁻¹. It also gave a koff (human collagen I [10]) of 0.000184 s⁻¹, a Kd (mouse collagen I [11]) of 12.5 nM and a Kd (rat collagen III [12]) of 115 nM. It also gave a Kd (rat collagen I [13]) of 3.74 nM, a Kd (human collagen III [14]) of 47 nM and a Kd (human collagen I [15]) of 17.2 nM. For the same binder, the Kd (mouse collagen I [16]) was 0.0918 nM, the Kd (rat collagen III [17]) was 0.878 nM and the Kd (rat collagen I [18]) was 0.0387 nM. The Kd (human collagen III [19]) was 0.51 nM and the Kd (human collagen I [20]) was 0.126 nM.
